Results reported in US20190134153A1, “IMMUNOMODULATORY EFFECT OF INHALED KINASE INHIBITOR PEPTIDES IN LUNG” (MOERAE MATRIX, INC., priority 2017, published 2019).

Tests used:
Assay in all cases: Kinase Profiling Assay
Type in all cases: biochemical
Settings in all cases: 100 μM
CaMKIIδ(h) = CaMKIIδ(h) (Homo sapiens, UniProt Q13557)
CDK7/cyclinH/MAT1(h) = CDK7/cyclinH/MAT1(h) (Homo sapiens, UniProt P50613)
CHK2(I157T)(h) = CHK2(I157T)(h) (Homo sapiens, UniProt O96017, I157T)
DRAK1(h) = molecular target: T1, DRAK1(h) (Homo sapiens, UniProt Q9UEE5)
T1 sequence (Q9UEE5 1-414): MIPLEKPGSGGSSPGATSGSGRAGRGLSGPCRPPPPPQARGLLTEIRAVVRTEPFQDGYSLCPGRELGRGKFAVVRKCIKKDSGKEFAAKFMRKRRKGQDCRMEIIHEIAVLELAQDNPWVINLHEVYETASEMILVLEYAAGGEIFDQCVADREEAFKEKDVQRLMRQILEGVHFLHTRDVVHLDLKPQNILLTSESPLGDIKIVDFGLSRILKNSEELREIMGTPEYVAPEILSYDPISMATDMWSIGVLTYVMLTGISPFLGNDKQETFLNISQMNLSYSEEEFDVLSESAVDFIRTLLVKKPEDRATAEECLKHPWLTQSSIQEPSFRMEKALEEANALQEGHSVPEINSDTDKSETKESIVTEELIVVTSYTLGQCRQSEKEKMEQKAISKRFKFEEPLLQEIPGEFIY

Fes(h) = Fes(h) (Homo sapiens, UniProt P07332)
Fms(Y969C)(h) = Fms(Y969C)(h) (Homo sapiens, UniProt P07333, Y969C)
IRR(h) = IRR(h) (Homo sapiens, UniProt P14616)
Met(h) = Met(h) (Homo sapiens, UniProt P08581)
Met(Y1248D)(h) = Met(Y1248D)(h) (Homo sapiens, UniProt P08581, Y1230D)
NEK2(h) = molecular target: T2, NEK2(h) (Homo sapiens, UniProt P51955)
T2 sequence (P51955 1-445): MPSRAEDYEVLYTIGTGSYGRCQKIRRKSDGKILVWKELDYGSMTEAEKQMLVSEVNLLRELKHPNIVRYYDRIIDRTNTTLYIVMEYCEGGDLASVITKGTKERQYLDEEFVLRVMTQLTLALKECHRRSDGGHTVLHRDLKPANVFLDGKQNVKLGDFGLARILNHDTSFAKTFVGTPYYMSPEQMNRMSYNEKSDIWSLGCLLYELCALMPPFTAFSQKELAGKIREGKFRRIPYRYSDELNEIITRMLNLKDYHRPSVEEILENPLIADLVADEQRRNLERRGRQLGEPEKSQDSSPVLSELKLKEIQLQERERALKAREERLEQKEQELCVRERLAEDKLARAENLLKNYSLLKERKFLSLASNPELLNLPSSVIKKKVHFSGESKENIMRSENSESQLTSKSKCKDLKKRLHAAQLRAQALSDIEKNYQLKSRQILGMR

Pim-1(h) = Pim-1(h) (Homo sapiens, UniProt P11309)
Chain of Pim-1(h) (P11309 whole entry): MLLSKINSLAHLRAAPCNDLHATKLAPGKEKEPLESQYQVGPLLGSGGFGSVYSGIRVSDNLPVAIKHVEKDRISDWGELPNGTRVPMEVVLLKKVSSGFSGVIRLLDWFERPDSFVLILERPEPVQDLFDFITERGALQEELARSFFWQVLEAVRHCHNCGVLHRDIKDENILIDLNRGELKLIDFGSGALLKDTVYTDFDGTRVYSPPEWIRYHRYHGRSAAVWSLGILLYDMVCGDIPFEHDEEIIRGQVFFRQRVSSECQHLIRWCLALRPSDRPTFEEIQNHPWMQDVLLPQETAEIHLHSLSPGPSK

Ros(h) = Ros(h) (Homo sapiens, UniProt P08922)
Chain of Ros(h) (P08922 28-2347): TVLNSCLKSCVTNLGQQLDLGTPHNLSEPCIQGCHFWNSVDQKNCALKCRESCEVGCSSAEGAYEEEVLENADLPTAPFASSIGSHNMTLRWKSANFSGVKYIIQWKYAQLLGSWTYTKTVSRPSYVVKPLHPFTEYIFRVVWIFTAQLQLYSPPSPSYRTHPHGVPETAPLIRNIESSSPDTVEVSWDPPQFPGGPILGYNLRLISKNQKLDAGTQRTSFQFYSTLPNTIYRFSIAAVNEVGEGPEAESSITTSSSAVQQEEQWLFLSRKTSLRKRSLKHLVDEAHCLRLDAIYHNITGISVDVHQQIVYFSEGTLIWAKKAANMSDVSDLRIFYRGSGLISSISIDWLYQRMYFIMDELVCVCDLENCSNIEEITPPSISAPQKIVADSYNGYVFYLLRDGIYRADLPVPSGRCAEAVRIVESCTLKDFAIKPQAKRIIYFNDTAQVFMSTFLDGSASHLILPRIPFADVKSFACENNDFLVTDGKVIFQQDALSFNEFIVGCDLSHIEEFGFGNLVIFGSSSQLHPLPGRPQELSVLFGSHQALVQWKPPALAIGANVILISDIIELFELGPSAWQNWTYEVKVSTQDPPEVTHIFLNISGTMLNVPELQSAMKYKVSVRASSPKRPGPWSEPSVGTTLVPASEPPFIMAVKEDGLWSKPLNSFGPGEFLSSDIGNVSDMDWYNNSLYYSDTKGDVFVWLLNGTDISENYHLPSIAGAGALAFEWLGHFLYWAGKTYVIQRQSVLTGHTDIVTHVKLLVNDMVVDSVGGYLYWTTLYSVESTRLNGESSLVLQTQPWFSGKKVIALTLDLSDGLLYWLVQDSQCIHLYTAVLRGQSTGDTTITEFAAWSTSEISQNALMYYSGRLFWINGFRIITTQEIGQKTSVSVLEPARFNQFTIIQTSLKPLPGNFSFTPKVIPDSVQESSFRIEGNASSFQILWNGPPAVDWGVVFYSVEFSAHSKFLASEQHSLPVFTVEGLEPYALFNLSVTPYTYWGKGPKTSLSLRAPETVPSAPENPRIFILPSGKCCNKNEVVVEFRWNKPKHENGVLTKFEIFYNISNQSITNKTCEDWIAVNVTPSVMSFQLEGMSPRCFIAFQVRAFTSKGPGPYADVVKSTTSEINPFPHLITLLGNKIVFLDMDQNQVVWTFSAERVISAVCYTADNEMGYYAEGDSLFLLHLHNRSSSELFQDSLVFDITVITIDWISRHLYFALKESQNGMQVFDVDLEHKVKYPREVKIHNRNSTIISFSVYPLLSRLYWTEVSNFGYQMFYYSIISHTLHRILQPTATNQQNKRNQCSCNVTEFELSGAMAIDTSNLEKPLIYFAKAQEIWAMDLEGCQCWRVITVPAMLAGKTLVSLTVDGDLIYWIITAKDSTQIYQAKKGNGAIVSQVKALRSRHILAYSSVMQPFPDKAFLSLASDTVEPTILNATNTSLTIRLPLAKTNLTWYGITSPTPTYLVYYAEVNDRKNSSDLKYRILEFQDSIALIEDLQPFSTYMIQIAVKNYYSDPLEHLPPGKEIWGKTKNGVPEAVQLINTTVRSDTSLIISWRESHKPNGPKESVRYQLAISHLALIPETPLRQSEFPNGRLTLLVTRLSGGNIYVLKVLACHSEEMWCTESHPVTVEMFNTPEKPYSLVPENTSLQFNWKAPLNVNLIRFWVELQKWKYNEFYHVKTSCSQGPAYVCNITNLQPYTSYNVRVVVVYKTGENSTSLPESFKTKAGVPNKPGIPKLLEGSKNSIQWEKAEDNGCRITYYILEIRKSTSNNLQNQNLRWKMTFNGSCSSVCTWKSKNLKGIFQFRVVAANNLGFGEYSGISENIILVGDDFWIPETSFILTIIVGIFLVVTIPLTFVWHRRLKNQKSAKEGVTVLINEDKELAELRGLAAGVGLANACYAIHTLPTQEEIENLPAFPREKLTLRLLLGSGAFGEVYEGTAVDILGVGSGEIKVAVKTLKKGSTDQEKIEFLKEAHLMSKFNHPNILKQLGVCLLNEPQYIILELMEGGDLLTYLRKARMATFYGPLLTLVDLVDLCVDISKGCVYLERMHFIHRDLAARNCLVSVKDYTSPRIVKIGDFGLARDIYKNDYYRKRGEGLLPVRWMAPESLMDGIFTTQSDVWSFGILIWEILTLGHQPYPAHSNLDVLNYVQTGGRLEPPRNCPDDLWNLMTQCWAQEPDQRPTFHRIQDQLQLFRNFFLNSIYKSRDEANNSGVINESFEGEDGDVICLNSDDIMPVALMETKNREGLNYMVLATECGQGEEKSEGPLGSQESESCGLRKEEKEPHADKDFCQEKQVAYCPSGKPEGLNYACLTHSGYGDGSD

TrkB(h) = TrkB(h) (Homo sapiens, UniProt Q16620)
Txk(h) = molecular target: T3, Txk(h) (Homo sapiens, UniProt P42681)
T3 sequence (P42681 1-527): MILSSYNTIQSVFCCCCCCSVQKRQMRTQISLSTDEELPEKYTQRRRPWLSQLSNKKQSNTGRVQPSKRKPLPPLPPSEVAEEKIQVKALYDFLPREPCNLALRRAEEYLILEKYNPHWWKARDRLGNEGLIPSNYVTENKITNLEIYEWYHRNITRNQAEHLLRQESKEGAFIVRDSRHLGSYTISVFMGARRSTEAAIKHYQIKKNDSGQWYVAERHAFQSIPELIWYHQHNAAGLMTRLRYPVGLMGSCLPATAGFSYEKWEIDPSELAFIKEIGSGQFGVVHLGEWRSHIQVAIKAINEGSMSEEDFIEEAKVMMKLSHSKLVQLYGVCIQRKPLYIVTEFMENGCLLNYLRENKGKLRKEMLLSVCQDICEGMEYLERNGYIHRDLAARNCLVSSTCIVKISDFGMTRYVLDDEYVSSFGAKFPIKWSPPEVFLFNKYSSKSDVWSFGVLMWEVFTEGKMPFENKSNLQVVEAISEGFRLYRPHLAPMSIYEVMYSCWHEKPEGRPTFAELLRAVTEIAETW

cKit(V654A)(h) = cKit(V654A)(h) (Homo sapiens, UniProt P10721, V654A)
IR(h), activated = IR(h), activated (Homo sapiens, UniProt P06213)
ROCK-I(h) = ROCK-I(h) (Homo sapiens, UniProt Q13464)
Chain of ROCK-I(h) (Q13464 whole entry): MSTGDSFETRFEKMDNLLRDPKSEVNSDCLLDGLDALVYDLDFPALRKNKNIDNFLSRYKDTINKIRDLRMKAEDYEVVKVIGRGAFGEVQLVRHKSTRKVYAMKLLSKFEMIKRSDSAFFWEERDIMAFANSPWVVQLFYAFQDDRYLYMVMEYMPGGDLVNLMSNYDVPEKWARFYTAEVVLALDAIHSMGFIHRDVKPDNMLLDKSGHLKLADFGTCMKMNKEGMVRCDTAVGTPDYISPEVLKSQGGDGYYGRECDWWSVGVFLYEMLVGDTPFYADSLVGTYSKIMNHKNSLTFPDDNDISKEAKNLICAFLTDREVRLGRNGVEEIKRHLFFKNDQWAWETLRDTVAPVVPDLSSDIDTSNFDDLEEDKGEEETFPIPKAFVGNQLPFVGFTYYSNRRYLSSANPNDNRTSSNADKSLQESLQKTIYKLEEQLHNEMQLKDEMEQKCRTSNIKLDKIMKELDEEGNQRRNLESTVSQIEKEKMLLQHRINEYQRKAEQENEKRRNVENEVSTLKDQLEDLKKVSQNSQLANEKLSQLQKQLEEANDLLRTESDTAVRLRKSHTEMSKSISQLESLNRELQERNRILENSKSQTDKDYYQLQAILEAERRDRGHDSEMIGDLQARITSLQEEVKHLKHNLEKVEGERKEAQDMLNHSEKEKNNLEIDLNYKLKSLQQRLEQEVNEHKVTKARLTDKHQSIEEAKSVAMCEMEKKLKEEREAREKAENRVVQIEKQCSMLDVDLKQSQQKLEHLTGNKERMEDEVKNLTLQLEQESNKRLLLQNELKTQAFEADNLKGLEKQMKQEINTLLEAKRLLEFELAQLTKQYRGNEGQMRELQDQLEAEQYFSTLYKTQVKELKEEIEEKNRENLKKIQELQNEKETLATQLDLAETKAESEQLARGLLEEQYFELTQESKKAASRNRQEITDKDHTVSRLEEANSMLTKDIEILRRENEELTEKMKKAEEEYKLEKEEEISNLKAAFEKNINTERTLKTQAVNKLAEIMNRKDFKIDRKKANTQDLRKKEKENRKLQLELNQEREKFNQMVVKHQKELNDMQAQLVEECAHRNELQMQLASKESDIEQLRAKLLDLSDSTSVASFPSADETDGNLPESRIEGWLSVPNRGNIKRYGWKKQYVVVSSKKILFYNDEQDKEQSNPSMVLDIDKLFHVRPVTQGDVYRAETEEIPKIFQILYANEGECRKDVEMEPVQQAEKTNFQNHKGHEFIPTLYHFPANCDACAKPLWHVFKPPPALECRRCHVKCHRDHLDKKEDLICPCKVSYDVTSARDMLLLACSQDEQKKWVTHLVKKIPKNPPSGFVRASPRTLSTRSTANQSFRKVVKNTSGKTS

Rsk1(h) = Rsk1(h) (Homo sapiens, UniProt Q15418)

Chain of CHK2(I157T)(h) (O96017 whole entry I157T): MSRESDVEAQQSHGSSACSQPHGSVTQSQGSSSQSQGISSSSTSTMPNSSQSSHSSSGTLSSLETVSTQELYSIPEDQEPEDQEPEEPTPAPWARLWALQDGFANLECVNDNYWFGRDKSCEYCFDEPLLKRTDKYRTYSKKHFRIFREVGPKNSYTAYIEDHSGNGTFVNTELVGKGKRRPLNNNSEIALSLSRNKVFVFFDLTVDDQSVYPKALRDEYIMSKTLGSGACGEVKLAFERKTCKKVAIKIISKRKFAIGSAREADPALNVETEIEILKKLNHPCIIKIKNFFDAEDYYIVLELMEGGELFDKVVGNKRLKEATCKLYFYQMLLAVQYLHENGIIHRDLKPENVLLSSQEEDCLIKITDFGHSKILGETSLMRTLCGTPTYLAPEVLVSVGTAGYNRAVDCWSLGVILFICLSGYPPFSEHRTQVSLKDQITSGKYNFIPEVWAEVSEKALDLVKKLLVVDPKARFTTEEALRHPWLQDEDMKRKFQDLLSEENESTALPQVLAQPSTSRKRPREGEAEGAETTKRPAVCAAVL
Chain of CaMKIIδ(h) (Q13557 whole entry): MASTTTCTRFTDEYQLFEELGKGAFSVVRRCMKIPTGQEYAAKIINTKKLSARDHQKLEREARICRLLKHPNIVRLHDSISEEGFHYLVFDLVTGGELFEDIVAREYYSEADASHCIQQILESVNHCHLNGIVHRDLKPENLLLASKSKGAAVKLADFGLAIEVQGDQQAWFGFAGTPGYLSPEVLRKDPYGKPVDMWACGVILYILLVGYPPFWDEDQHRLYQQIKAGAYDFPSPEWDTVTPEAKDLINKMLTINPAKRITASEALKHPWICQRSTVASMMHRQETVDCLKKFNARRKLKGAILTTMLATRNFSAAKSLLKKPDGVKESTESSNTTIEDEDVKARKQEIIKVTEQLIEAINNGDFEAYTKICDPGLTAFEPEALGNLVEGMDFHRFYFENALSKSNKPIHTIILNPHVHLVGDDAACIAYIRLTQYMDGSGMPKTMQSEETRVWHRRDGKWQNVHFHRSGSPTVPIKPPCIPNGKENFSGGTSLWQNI

| Sequence | % activity (CaMKIIδ(h)) [%] | % activity (CDK7/cyclinH/MAT1(h)) [%] | % activity (CHK2(I157T)(h)) [%] | % activity (DRAK1(h)) [%] | % activity (Fes(h)) [%] | % activity (Fms(Y969C)(h)) [%] | % activity (IRR(h)) [%] | % activity (Met(h)) [%] | % activity (Met(Y1248D)(h)) [%] | % activity (NEK2(h)) [%] | % activity (Pim-1(h)) [%] | % activity (Ros(h)) [%] | % activity (TrkB(h)) [%] | % activity (Txk(h)) [%] | % activity (cKit(V654A)(h)) [%] | % activity (IR(h), activated) [%] | % activity (ROCK-I(h)) [%] | % activity (Rsk1(h)) [%] |
| --- | --- | --- | --- | --- | --- | --- | --- | --- | --- | --- | --- | --- | --- | --- | --- | --- | --- | --- |
| YARAAARQARAKALNRQLGVA [MMI-0200] | 2 | 67 | 85 | 34 | 74 | 88 | 69 | 71 | 118 | 97 | 18 | 86 | 7 | 98 | – | – | – | – |
| FAKLAARLYRKALARQLGVAA [MMI-0300] | 1 | 65 | 43 | 14 | 20 | 72 | 8 | 65 | – | 78 | 8 | 95 | 5 | 48 | 134 | 79 | 79 | 46 |
| KAFAKLAARLYRKALARQLGVAA [MMI-0400] | 2 | 47 | 41 | 14 | 16 | 91 | 8 | 62 | 31 | 61 | 7 | 99 | 8 | 37 | 150 | 59 | 73 | 54 |
| HRRIKAWLKKIKALARQLGVAA [MMI-0500] | 1 | 15 | 3 | 8 | 23 | – | 10 | 27 | 218 | 0 | 0 | 150 | 12 | 10 | 223 | 90 | 17 | 34 |
